B1: mAb 3_17 (IgG4 converted from scFv 3_17) (antibody, V domains shown)
VH: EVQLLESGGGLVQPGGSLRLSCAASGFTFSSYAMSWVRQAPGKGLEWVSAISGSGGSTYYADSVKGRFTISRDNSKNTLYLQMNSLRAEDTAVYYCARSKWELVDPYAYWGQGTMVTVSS
VL: NFMLTQPHSVSESPGKTITISCTRSSGSIAGNYVQWYQQRPGSAPIIVIYEDNQRPSGVPDRFSGSIDSSSNSASLTISRLKTEDEADYYCQSYEASNVVFGGGTKLTVL
notes: as the VH stretch before the HCDR3 of m14; HCDR3 of 3_17; T to S at position 1 and D to A at position 10 against the wild type; as the VH stretch after the HCDR3 of m14; as the light chain of m14; IgG4; also called IgG 3_17; source: EBNA 293 cells, cotransfected (pEU8.2 and pEU4.2), purified from the medium (protein A); copies: 2 + 2
B2: mAb 3_14 (IgG4 converted from scFv 3_14) (antibody, V domains shown)
VH: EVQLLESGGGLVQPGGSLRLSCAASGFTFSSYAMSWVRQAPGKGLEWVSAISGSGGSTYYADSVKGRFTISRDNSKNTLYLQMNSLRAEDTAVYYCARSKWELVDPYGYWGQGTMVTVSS
VL: B1 VL
notes: as the VH stretch before the HCDR3 of m14; HCDR3 of 3_14; T to S at position 1 and D to G at position 10 against the wild type; as the VH stretch after the HCDR3 of m14; as the light chain of m14; IgG4; also called IgG 3_14; source: EBNA 293 cells, cotransfected (pEU8.2 and pEU4.2), purified from the medium (protein A); copies: 2 + 2
B3: mAb 10_3 (IgG4 converted from scFv 10_3) (antibody, V domains shown)
VH: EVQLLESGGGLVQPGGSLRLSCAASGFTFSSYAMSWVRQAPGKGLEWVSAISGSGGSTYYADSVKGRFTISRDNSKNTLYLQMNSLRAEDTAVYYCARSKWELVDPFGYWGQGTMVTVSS
VL: B1 VL
notes: as the VH stretch before the HCDR3 of m14; HCDR3 of 10_3; T to S at position 1, Y to F at position 9 and D to G at position 10 against the wild type; as the VH stretch after the HCDR3 of m14; as the light chain of m14; IgG4; also called IgG 10_3; antibody 10_3; source: EBNA 293 cells, cotransfected (pEU8.2 and pEU4.2), purified from the medium (protein A); copies: 2 + 2
B4: mAb 3_3 (IgG4 converted from scFv 3_3) (antibody, V domains shown)
VH: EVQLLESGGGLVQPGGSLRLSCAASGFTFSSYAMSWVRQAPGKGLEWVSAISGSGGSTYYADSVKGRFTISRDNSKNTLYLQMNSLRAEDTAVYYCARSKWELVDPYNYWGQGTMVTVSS
VL: B1 VL
notes: as the VH stretch before the HCDR3 of m14; HCDR3 of 3_3; T to S at position 1 and D to N at position 10 against the wild type; as the VH stretch after the HCDR3 of m14; as the light chain of m14; IgG4; also called IgG 3_3; source: EBNA 293 cells, cotransfected (pEU8.2 and pEU4.2), purified from the medium (protein A); copies: 2 + 2
B5: mAb 3_7 (IgG4 converted from scFv 3_7) (antibody, V domains shown)
VH: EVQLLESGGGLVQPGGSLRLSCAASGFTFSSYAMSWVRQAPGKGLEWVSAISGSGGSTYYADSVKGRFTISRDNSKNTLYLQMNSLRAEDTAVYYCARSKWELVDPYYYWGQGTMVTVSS
VL: B1 VL
notes: as the VH stretch before the HCDR3 of m14; HCDR3 of 3_7; T to S at position 1 and D to Y at position 10 against the wild type; as the VH stretch after the HCDR3 of m14; as the light chain of m14; IgG4; also called IgG 3_7; source: EBNA 293 cells, cotransfected (pEU8.2 and pEU4.2), purified from the medium (protein A); copies: 2 + 2
B6: scFv-yeast clone 3_3 (scFv, V domains shown)
VH: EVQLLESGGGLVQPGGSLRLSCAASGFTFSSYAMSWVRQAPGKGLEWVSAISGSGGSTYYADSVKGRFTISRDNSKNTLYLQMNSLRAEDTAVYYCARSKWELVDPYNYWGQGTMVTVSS
VL: B1 VL
notes: as the stretch N-terminal of the HCDR3 of m4; HCDR3 of clone 3_3 (same as 10_4); as the stretch C-terminal of the HCDR3 of m4; also called 10_4; not shown: HA, C-terminal, kept
B7: scFv-yeast clone 10_12 (scFv, V domains shown)
VH: not shown
VL: B1 VL
notes: as the stretch N-terminal of the HCDR3 of m4; HCDR3 of clone 10_12; as the stretch C-terminal of the HCDR3 of m4; not shown: HA, C-terminal, kept
B8: scFv-yeast clone 10_3 (scFv, V domains shown)
VH: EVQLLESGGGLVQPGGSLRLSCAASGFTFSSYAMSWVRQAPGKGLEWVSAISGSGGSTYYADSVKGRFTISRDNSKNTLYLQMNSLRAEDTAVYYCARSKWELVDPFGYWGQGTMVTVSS
VL: B1 VL
notes: as the stretch N-terminal of the HCDR3 of m4; HCDR3 of clone 10_3; as the stretch C-terminal of the HCDR3 of m4; not shown: HA, C-terminal, kept
B9: scFv-yeast clone 3_7 (scFv, V domains shown)
VH: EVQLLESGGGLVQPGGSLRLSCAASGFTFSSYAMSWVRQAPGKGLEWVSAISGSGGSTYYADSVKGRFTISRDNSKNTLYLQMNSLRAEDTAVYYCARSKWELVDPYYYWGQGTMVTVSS
VL: B1 VL
notes: as the stretch N-terminal of the HCDR3 of m4; HCDR3 of clone 3_7; as the stretch C-terminal of the HCDR3 of m4; not shown: HA, C-terminal, kept
B10: scFv-yeast clone 3_14 (scFv, V domains shown)
VH: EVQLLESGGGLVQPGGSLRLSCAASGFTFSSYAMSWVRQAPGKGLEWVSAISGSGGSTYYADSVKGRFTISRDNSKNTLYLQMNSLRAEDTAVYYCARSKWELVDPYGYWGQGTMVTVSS
VL: B1 VL
notes: as the stretch N-terminal of the HCDR3 of m4; HCDR3 of clone 3_14 (same as 10_2); as the stretch C-terminal of the HCDR3 of m4; also called 10_2; not shown: HA, C-terminal, kept
B11: scFv-yeast clone 3_17 (scFv, V domains shown)
VH: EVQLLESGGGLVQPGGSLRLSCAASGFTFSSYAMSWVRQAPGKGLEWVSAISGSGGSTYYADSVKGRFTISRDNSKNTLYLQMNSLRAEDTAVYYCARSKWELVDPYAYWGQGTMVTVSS
VL: B1 VL
notes: as the stretch N-terminal of the HCDR3 of m4; HCDR3 of clone 3_17; as the stretch C-terminal of the HCDR3 of m4; not shown: HA, C-terminal, kept

In one assay the target is T1, recombinant human PD-L1, Fc-tagged (rhPD-L1-Fc) (Homo sapiens, UniProt Q9NZQ7).
T1 construct: human PD-L1 (programmed death ligand-1) extracellular domain, linked to the Fc region of human IgG1; soluble disulfide-linked homodimer; also called dimeric rhPD-L1-Fc; dimeric PD-L1; source: bought: R&D Systems
T1 sequence (Q9NZQ7 19-238): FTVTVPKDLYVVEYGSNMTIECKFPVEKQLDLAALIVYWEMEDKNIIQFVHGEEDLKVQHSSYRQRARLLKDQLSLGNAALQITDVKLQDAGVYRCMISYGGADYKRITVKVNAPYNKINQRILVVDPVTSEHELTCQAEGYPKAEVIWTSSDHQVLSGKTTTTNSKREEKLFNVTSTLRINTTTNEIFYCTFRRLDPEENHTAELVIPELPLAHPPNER
The assay can be described thus: SPR; Biacore X100, 25°C, HBS-EP pH 7.4; dimeric rhPD-L1-Fc (300 RU) immobilised by amine coupling on CM5, IgG as analyte (12.5-0.39 nM wild type, 6.25-0.39 nM mutated mAbs); 1:1 Langmuir; apparent constants (KD2) of bivalent binding. As to conditions: both partners purified. In general terms: Surface plasmon resonance follows binding to a sensor surface in real time, without labels.
Take B1: the Kd came out at 0.165 nM; the koff (usually a measure of how fast the partners let go of each other) is 0.000159 s⁻¹; the on-rate (kon) (as a rule, the rate constant with which the complex forms) was 1.01e+06 M⁻¹ s⁻¹.

B2: the Kd turned out to be 0.172 nM, the koff was found to be 0.000176 s⁻¹ and the kon turned out to be 1.05e+06 M⁻¹ s⁻¹.

In the case of B3, the Kd is 0.139 nM, the off-rate (koff) came out at 0.000148 s⁻¹ and the kon was found to be 1.1e+06 M⁻¹ s⁻¹.

B4: the Kd was determined as 0.174 nM, the koff stood at 0.000193 s⁻¹ and the kon worked out at 1.14e+06 M⁻¹ s⁻¹.

On to B5, for which the Kd amounted to 0.287 nM, the koff was found to be 0.000287 s⁻¹ and the association rate constant (kon) stood at 1.03e+06 M⁻¹ s⁻¹.

The target in another assay is T1, recombinant human PD-L1, Fc-tagged …. The assay can be described thus: flow cytometry on cells; scFv displayed on yeast, titration with rhPD-L1-Fc (10 pM to 10 nM plus 30 nM), PBS 0.5% BSA, room temperature; binding MFI normalised on scFv expression; apparent KD = half-saturating antigen concentration. As to conditions: one partner purified. (In flow cytometry, cells or beads pass a laser one at a time.)
As to B6, the Kd was less than 1 nM.

Regarding B7, the Kd is less than 1 nM.

B8: the Kd is less than 1 nM.

As for B9, the Kd is less than 1 nM.

Consider B10, for which the Kd was less than 1 nM.

Turning to B11, the Kd is less than 1 nM.

Source of the values: article PMC6959147 (BioMed Research International, 2019).
